Experimental data: the supplement of paper PMC10567573
± gives the standard deviation.

Assay: protein stability index of a GFP-peptide fusion (GPS, HEK-293T) (PSI 1-6); higher = more stable
[1] = treatment: DMSO, c terminus: a fixed tail appended
[2] = treatment: MLN4924 1 uM, 8 h, c terminus: a fixed tail appended
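Also: 24-mer peptide tiles fused after GFP, lentivirally expressed, FACS-sorted into six equal bins by GFP/DsRed ratio, decoded by Illumina sequencing, PSI is the read-weighted mean bin number.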

Sequence | protein stability index [1] | protein stability index [2] | protein stability index (treatment: DMSO, c terminus: native) | protein stability index (treatment: MLN4924 1 uM, 8 h, c terminus: native)
QCAVLIYTSGTTGIPKGVMLSHDN [ACSBG2] | 2.65 ± 0.51 | 2.58 ± 0.72 | – | –
HPLAYGMVGPLAQDPQSPMAGLRW [POMT2] | 2.85 ± 0.39 | 2.77 ± 0.18 | – | –
LGERRAEPHSLLHLSRLCVRHNLG [SPSB2] | 3.35 ± 0.22 | 3.3 ± 0.23 | – | –
IFLFQDILVLTRPVTRNERHSYQV [NET1] | 2.58 ± 0.28 | 2.27 ± 0.27 | – | –
SVNICGMNEHPVCSRTWTNRLCHQ [SPAG8] | 2.29 ± 0.26 | 2.36 ± 0.14 | – | –
IRMIQEEKESTELRAEEIETRVTS [PPFIA4] | 5.22 ± 0.33 | 5.21 ± 0.38 | – | –
GAGFGGGLGAGFGGGFAGGDGLLV [KRT16] | 2.58 ± 0.82 | 2.46 ± 0.92 | – | –
QSSGLIRHQRIHTGERPYECNECG [ZSCAN9] | 4.03 ± 0.36 | 4 ± 0.49 | – | –
EAPASVVPFVRVKREREVDEDSEP [USP39] | 5.51 ± 0.17 | 5.51 ± 0.2 | – | –
LEGVVSQIDAVGSKLKMLERKGWL [PKD2L1] | 2.63 ± 0.37 | 2.77 ± 0.24 | – | –
INSIIHNPRAPVIIYKQTKGGVQN [CEP70] | 2.86 ± 0.43 | 3.34 ± 0.51 | – | –
STSRHVMAPVMAHVDPEEPWSPCS [ADAMTS4] | 4.32 ± 0.14 | 4.41 ± 0.17 | – | –
HMAKERAHSTASHSSSNSEDTEM [PDZK1] | – | – | 5.48 ± 0.26 | 5.39 ± 0.27
LQGLSLIVTWFMLLYAQGLLAIQF [SLC19A2] | 3.16 ± 0.26 | 3.16 ± 0.26 | – | –
NYIGTKNVIETCKEAGVQKLILTS [NSDHL] | 2.5 ± 0.23 | 2.84 ± 0.44 | – | –
PSDLDLVMSEGLGMRYAFIGPLET [CRYL1] | 2.46 ± 0.63 | 2.6 ± 0.39 | – | –
KVWDQVKASNPDLKLWEIGKIIGG [SMARCE1] | 2.45 ± 0.32 | 2.36 ± 0.23 | – | –
RTVNALEIELQAQHNLRYSLENTL [KRT33B] | 2.31 ± 0.25 | 2.29 ± 0.22 | – | –
KKLHKIQNKAQRQKDLIMKVENLT [TAF7L] | 3.23 ± 0.17 | 3.37 ± 0.12 | – | –
KKFRTKSRTWAGEKSKREMYSRLK [CDC25A] | 3.05 ± 0.39 | 3.46 ± 0.28 | – | –
DFPEEDDPTNWLRCYYYEDTISTI [NCF4] | 3.28 ± 0.25 | 3.2 ± 0.22 | – | –
AKLALYPCASLLAFASTCLLSRFS [TMEM175] | 2.45 ± 0.49 | 2.52 ± 0.52 | – | –

Sequence | protein stability index [1] | protein stability index [2] | protein stability index (treatment: DMSO, c terminus: native) | protein stability index (treatment: MLN4924 1 uM, 8 h, c terminus: native)
ILELVVLEQFVAILPKELQTWVRD [ZNF24] | 2.35 ± 0.54 | 2.45 ± 0.46 | – | –
DEEVQRKREMILKRKEEEALKDSL [VDR] | 5.35 ± 0.22 | 5.5 ± 0.19 | – | –
NPQENRWHTIAPMGTRRKHLGCAV [KLHL20] | 3.1 ± 0.13 | 3.11 ± 0.095 | – | –
QNQHHSASLQASIFSGAASLGYGT [APBB1IP] | 3.19 ± 0.16 | 3.15 ± 0.17 | – | –
RKLFEVESVTHHDYRMELAQAGTP [SPAG8] | 3.64 ± 0.33 | 3.57 ± 0.21 | – | –
VSLGLGQPWHAVMDIESLSVFTEP [FBXO33] | 2.31 ± 0.56 | 1.99 ± 0.26 | – | –
VGGYFVDKFVATMYHYLQFAYYKL [P3H4] | 3.67 ± 0.73 | 2.56 ± 0.048 | – | –
SAVQYFQFYGYLSQQQNMMQDYVR [CARM1] | 2.6 ± 0.72 | 3.35 ± 0.64 | – | –
KMKQLTEETEVLAHEIERLQMEMK [TRIM35] | 4.06 ± 0.55 | 3.63 ± 0.28 | – | –
QNINAPAPATTSSWEVVRNPLIAS [C22orf31] | 3.65 ± 0.32 | 3.7 ± 0.16 | – | –
LKPTLTIIKTEKVDLELFPSPDME [ETS1] | 3.4 ± 0.18 | 3.21 ± 0.32 | – | –
DPLLLILSFLDYRDLINCCYVSRR [FBXO3] | 2.91 ± 0.74 | 3.05 ± 0.82 | – | –
GPIQLWQFLLELLSDKSCQSFISW [ETS2] | 2.62 ± 0.5 | 2.73 ± 0.6 | – | –
RGRYGPPSRRSENRVVVSGLPPSG [SRSF1] | 4.08 ± 0.14 | 4.16 ± 0.17 | – | –
LELLGASFANDRENYDIIKTYHYL [FEM1B] | 2.32 ± 0.43 | 2.17 ± 0.36 | – | –
SNLSYHLEKNHPEEFCEFVKSNTE [ZBED1] | 4.72 ± 0.18 | 4.69 ± 0.29 | – | –
KLKDLSTVTSLQVPVLKPMDLMVE [PPP2R2C] | 3.33 ± 0.31 | 3.43 ± 0.27 | – | –
KVLQLTVRCEALTGELETLKERCA [CCDC89] | 2.28 ± 0.21 | 2.45 ± 0.27 | – | –
LEAVLHCHQMGVVHRDLKPENLLL [CAMK2B] | 2.22 ± 0.3 | 2.15 ± 0.35 | – | –
CFSVSMLAGPNDRSDVEKGGKIIM [UFD1] | 2.92 ± 0.48 | 3.2 ± 0.52 | – | –
VLGTKVDAERDGVKVPTTLAEYCV [CDC34] | 4.073 ± 0.014 | 4.07 ± 0.12 | – | –
LQRLKEQQFVIAGVLVEDSNNHHL [ZBED1] | 2.83 ± 0.085 | 3.02 ± 0.27 | – | –

Sequence | protein stability index [1] | protein stability index [2] | protein stability index (treatment: DMSO, c terminus: native) | protein stability index (treatment: MLN4924 1 uM, 8 h, c terminus: native)
IQAINGESTELMTHLEAQNRIKGC [PDLIM4] | 4.1 ± 0.19 | 4.15 ± 0.14 | – | –
IKQIQQLFEEILSNSRQLKWLSCG [FBXO33] | 3.57 ± 1.6 | 1.94 ± 0.58 | – | –
HRQETVDCLKKFNARRKLKGAILT [CAMK2D] | 2.69 ± 0.52 | 2.71 ± 0.22 | – | –
MLEKMDLKEFDLDALLGIDDLETM [ATF4] | 3.85 ± 0.14 | 3.87 ± 0.26 | – | –
VDAGAEPGRSRMISQEEFARQLQL [LPCAT4] | 4.52 ± 0.27 | 4.5 ± 0.15 | – | –
ASTVTEIVKQQDPLVYKAIQQGIN [ACSBG2] | 3.49 ± 0.3 | 3.96 ± 0.35 | – | –
YTNSAGVPSLNAALMHTLQRHRDI [GOSR1] | 2.79 ± 0.15 | 2.92 ± 0.23 | – | –
DLINKMLTINPAKRITASEALKHP [CAMK2D] | 2.49 ± 0.31 | 2.64 ± 0.32 | – | –
LKCDLQERLLCPSLLAGTADGSLR [M1AP] | 2.55 ± 0.32 | 2.5 ± 0.24 | – | –
KRRANQKSSAQGPIPWFLPESRSL [PPEF2] | 3.49 ± 0.23 | 3.57 ± 0.16 | – | –
KERPLVIGHFNTASGVGFILGPVV [MFSD9] | 3.04 ± 1.1 | 2.77 ± 0.51 | – | –
KVTRLKSLALDIDRDAEDQNRYLD [BET1L] | 4.44 ± 0.17 | 4.6 ± 0.18 | – | –
QISMELAKVNYVKNNICFMSHHQE [SLC2A12] | 2.6 ± 0.16 | 2.41 ± 0.27 | – | –
SPEWDTVTPEAKNLINQMLTINPA [CAMK2B] | 3.84 ± 0.18 | 3.86 ± 0.21 | – | –
DTDRDGYISHRELGDCMRTLGYMP [CABP4] | 3.41 ± 0.22 | 3.47 ± 0.26 | – | –
NVNSNLITWNRVVLLHGPPGTGKT [TRIP13] | 2.45 ± 0.21 | 2.53 ± 0.14 | – | –
CMVCKKKIGNSAFARYPNGVVVHY [VPS39] | 2.37 ± 0.17 | 2.51 ± 0.41 | – | –
HDFLSDLFSDDYGGKNCKKPAEYG [CEBPB] | 3.83 ± 0.16 | 3.8 ± 0.17 | – | –
FLFQKPGDKYEHHSYMGMRGFCAF [POMT2] | 2.55 ± 0.75 | 1.99 ± 0.22 | – | –
QRQKYLSLQQMQELSNILNLSYKQ [NANOGP8] | 2.57 ± 0.29 | 2.69 ± 0.15 | – | –
ENLLLASKLKGAAVKLADFGLAIE [CAMK2A] | 2.35 ± 0.25 | 2.7 ± 0.29 | – | –
